± gives the half width of the 95% confidence interval.
What was measured:
[1] = folding stability dG unfold from chymotrypsin proteolysis; higher = more stable
Experimental: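 Folding stability of de novo designed mini-proteins (<80 aa, no Cys; designed by TrROS, TrMRF, ProteinMPNN and the joint model) was measured by cDNA display proteolysis with trypsin and chymotrypsin. Each protease was used at 11 concentrations in a threefold dilution series plus a no-protease condition. K50 was inferred by Bayesian fitting of sequencing counts, and dG unfold was derived against a sequence-predicted unfolded-state K50 (Tsuboyama et al. method). Sequences shown include variable-length N-terminal GS-type padding (SAGGSAGG...) inside a display construct carrying a PA tag. Rows were kept only if the AF2 dimer inter-PAE was >15, to exclude likely homo-oligomers.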

[2] = folding stability dG unfold (combined trypsin and chymotrypsin); higher = more stable
How it was run: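 Unfolding free energy was derived, per protease or combined, by relating Bayesian-fitted K50 values from sequencing counts to a sequence-predicted unfolded-state K50 and a shared folded-state K50. The underlying digests exposed cysteine-free mini-proteins under 80 residues, in a PA-tagged cDNA display construct, to trypsin and chymotrypsin at 11 threefold-diluted concentrations and to a no-protease condition. A filter kept only designs with AlphaFold2 dimer inter-PAE above 15.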

Row | Sequence | folding stability dG unfold [1] [kcal/mol] | folding stability dG unfold [2] [kcal/mol]
1 | SAGGSAENLVRTTRTTEALPDGGTRTTTTTTLPGGLTVVTRPYYDPATGTTATTTTTLAPDETVTDSAGGSA [r15_917_JUSTAS] | 0.447 ± 0.05 | -0.0377 ± 0.16
2 | SAGGSAEPTGPPDVEVKRSTSVEGGLTLTPVTYTSPDNTETLVITYTTDPAGNLSSTTATVPPDLVSAGGSA [r15_986_JUSTAS] | 0.276 ± 0.36 | -0.00361 ± 0.28
3 | SAGGSAGEAEELAEAREAALRAALPPGTVVEVEVEVRVEREGDREEERVEVRVTVREPGTDRLLLESAGGSA [r15_915_JUSTAS] | 0.13 ± 0.18 | -0.173 ± 0.57
4 | SAGGSAGGDHVQIEFPIWRMKEVERNPDNGEPRMDMEPIEITIWYPPDDPEKAKKIADEILDFISAGGSAGG [r6_280_TrROS] | 0.891 ± 0.14 | 0.409 ± 0.18
5 | SAGGSAGGLTITLPNGATVTINEDDLEVVEVTFEPAPPAPPVRTETRTVTETRTVTTLAPGEEASAGGSAGG [r6_585_TrROS_Hall] | 0.938 ± 0.035 | 0.403 ± 0.11
6 | SAGGSAGGMKKYTFDSGYEFEIDGATEEEAIEKLKEEGYPLPVKKITAEEVKPEPPPPFERNLKSAGGSAGG [r6_688_JUSTAS] | 0.109 ± 0.23 | -0.451 ± 0.29
7 | SAGGSAGGMTVTVEIPLPPDVPIEEVKEKVKESGYPPTKIEYDPATGKATITLSPEAKEFLEKKSAGGSAGG [r6_307_JUSTAS] | -0.425 ± 0.11 | < -1
8 | SAGGSAGGNNPPKTREIWIPPDDPDDLKDLKIDGPPGDTHHFRNPGGPYRITVTDGDPKVEPWGSAGGSAGG [r6_551_TrROS] | -0.301 ± 0.49 | < -1
9 | SAGGSAGGPMKPVEYEIPLPGRPITIEVNPPYGYIDIEWPPNGKERTVPMSPGQSAEDILKELFSAGGSAGG [r6_166_TrROS] | -1.41 ± 0.32 | < -1
10 | SAGGSAGGSAAVVVNATPDDGFTIYDPATGERLADAEVTKTNGDSLNLPHPDGRAVAVDPRKSAGGSAGGSA [r18_363_JUSTAS] | 0.231 ± 0.084 | -0.373 ± 0.47
11 | SAGGSAGGSADEFVVVADLPEGGEARLLVLPLPDGSYLVAEAEAERHGDRTVLHVKVTPAESAGGSAGGSAG [r3_281_TrMRF] | 0.595 ± 0.11 | -0.0917 ± 0.14
12 | SAGGSAGGSADPAFEALARAEGVPVEVTREGDTLVVTARRPDPAGREVVEEFRVPVPPELLESAGGSAGGSA [r18_27_JUSTAS] | -0.174 ± 0.14 | < -1
13 | SAGGSAGGSAGAEPLVREFEGRRIVLYREEDPGTARIEVFVGDKPYTVPLEYVPEELLLDSAGGSAGGSAGG [r11_152_TrMRF] | 0.78 ± 0.085 | 0.325 ± 0.053
14 | SAGGSAGGSAGAVTVTLTGGPTLEIPIPDVPPEELGTPEVVARIEAIAAARGLTIASIRLSAGGSAGGSAGG [r11_467_JUSTAS] | -0.14 ± 0.14 | < -1
15 | SAGGSAGGSAGDGDTMPFIMIHPDYLTINTWKFNPDGGLEIKSVKTIPLPPPKPSPDNKKSAGGSAGGSAGG [r11_843_TrROS] | -0.466 ± 0.45 | -0.48 ± 0.21
16 | SAGGSAGGSAGDNGPLVIEVDISPDALADAVKNNKPLNANVRIYRPDGSPGGVFDLLIPASAGGSAGGSAGG [r11_26_TrMRF] | 0.217 ± 0.076 | -0.126 ± 0.12
17 | SAGGSAGGSAGDVEVTEVTDANGNLTLTVKAKPATVTPNETVTVTLTVVNDDGETKTFELSAGGSAGGSAGG [r17_293_TrROS_Hall] | -0.186 ± 0.4 | -0.493 ± 0.41
18 | SAGGSAGGSAGELPEGAKVEVREETFTRPDGYLVKRTEVRLEDTDELVTSEEVIEPGEEPSAGGSAGGSAGG [r11_338_TrROS_Hall] | 0.899 ± 0.086 | 0.378 ± 0.06
19 | SAGGSAGGSAGEPKIKKKYIIPLKLKDPNTDKVYIANIEVDNKEEVPKIVKKLKDKGYLSSAGGSAGGSAGG [r11_668_TrMRF] | 0.351 ± 0.32 | -0.0903 ± 0.4
20 | SAGGSAGGSAGEWIPADYIRDFARNLGMPGKIDVERKEDGWFTIEIRNNGGPRKIQIPLDSAGGSAGGSAGG [r11_410_TrROS] | 0.00957 ± 0.25 | -0.548 ± 0.38
21 | SAGGSAGGSAGGAADAKVRLVLRTRTFDAVPGEERELPGDSWVYEVGDKAVALELLADPVSAGGSAGGSAGG [r7_506_TrMRF] | 0.895 ± 0.058 | 0.21 ± 0.083
22 | SAGGSAGGSAGGAMDLPPSREAEIKLPNGETIRIFRPPDGSITLEFYDKGGKKTKIIPNSAGGSAGGSAGGS [r10_150_JUSTAS] | -0.124 ± 0.17 | < -1
23 | SAGGSAGGSAGGAVERFPGPATVTALPDGRRLVTTTDPSGRPTLTLLEVETPERVTAHPASAGGSAGGSAGG [r7_423_JUSTAS] | 0.286 ± 0.038 | -0.663 ± 0.2

Source: the supplement of paper PMC12764529
